Laboratory results taken from patent US8329186B2, “Treatment of inflammation using BST2 inhibitor” (Isu Abxis Co., Ltd, priority 2004, dated 2012).
Entries after “also recorded” stand apart in the source; their conditions may differ.

Experiments:
U937 cells = test: Homotypic aggregation of U937 cells induced by PMA and LPS; type: cell-based, human; details: decoy medium from CHO-S cells, in comparison with control medium
Procedure: Expression levels of Bst2 protein were examined during aggregation of human U937 monocytic cells. […] To determine the degree of cell aggregation, the size of formed cell aggregates was measured as pixel intensity, using Adobe's Photoshop software, version 7.0. The standard deviation values shown in drawings were calculated from mean values of six randomly selected aggregates. Thereafter, all used cells were recovered, and total RNA was isolated and subjected to RT-PCR using a set of primers of SEQ ID NOS:3 and 4 to assess Bst2 expression levels.
1×10^6 U937 cells, which had been cultured under the aforementioned conditions, were seeded onto a 96-well cell culture plate (NUNC) and treated with PMA (2 ng/ml, Calbiochem) and LPS (10 μg/ml, Calbiochem) for 24 hrs. The cells were then observed for the degree of homotypic cell aggregation under a phase-contrast inverted microscope (Olympus 1X71, state, USA).
U937 cells were pretreated with PMA and LPS to induce cell aggregation, and were treated with serial dilutions of medium (decoy medium) containing a Bst2 decoy transiently expressed in CHO-S cells.

interleukin-2 (IL-2) = test: IL-2 expression in activated Jurkat cells (real-time RT-PCR); type: cell-based, human; details: 3-fold increased by Jurkat cell activation
Procedure: Intracellular expression levels of specific genes were analyzed by real-time quantitative RT-PCR using ABI Prism 7900HT (Applied Biosystems, Foster City, Calif.) and a SYBR-Green assay kit. Primers and probes used were designed using Primer Express software (Applied Biosystems).
10 ng of single-stranded cDNA was placed in a reaction tube and subjected to multiplex TaqMan PCR (50 μl) using the TaqMan Universal PCR Master Mix. The relative amount of target cDNA was calculated using the comparative cycle threshold (CT) method. PCR products were analyzed by agarose gel electrophoresis.
The relative levels of a specific gene A were expressed as a change compared to a control sample (untransfected cells). […] The above experiments were carried out to quantify the expression of the Bst2 gene and interleukin-2.
When Jurkat cells (5×10^5 cells/ml) were incubated with anti-CD3 monoclonal antibody (OKT3: 10 μg/ml, BD Pharmingen) at 4° C. for 20 min and then with anti-mouse immunoglobulin polyclonal antibody (25 μg/ml, Zymed) 37° C. for 1 hr, cell aggregation occurred, and the cells were activated and induced to produce interleukin-2 (IL-2) (FIGS. 10 and 11). […] IL-2 mRNA levels upon T cell activation were measured by real-time RT-PCR (Example 3). […]

HUVECs and U937 cells = test: Heterotypic aggregation/adhesion between IFN-γ-treated HUVECs and U937 cells; type: cell-based, human
Procedure: HUVECs (1−5×10^4 cells/ml) were seeded onto a 12-well cell culture plate. After one day, the medium was exchanged with a low-serum medium containing 0.5% FBS, and the cells were pretreated with interferon-gamma (IFN-γ; Calbiochem) in a final concentration 10 ng/ml for 24 hrs. Then, the pretreated HUVECs were co-cultured with U937 cells (2×10^6 cells/ml, 500 μl) at 37° C. for 4 hrs. The co-culture was washed with phosphate buffer three or four times, and the remaining cells were fixed with 4% paraformaldehyde and microscopically observed.
HUVECs were transfected with an expression vector for Bst2, treated with or without IFN-γ and then transfected with Bst2 siRNA. These cells were assessed for U937 cell adhesion.
HUVECs were cultured in 12-well plates with or without transfection of Bst2 siRNA or control siRNA for 6 hr, then treated with or without IFNγ for 24 hr. In some experiments, cells were treated with crude media containing Bst2 decoy or mouse anti-human ICAM1 antibodies. After a wash with PBS (phosphate buffered saline), U937 cells were resuspended in serum free medium at 2×10^6 cells/ml. Assays were initiated by the addition of 200 ul U937 cells to HUVEC for a final volume of 1 ml. After 4 hr at 37° C., unbound U937 cells were removed by washing plates three times with PBS. Bound cells were fixed by the addition of 4% paraformaldehyde in PBS, and the bound cells were counted under microscopy in different fields. All statistical analyses were performed in Excel and statistical significance were evaluated with Student's t test. In some experiments, RNA samples were obtained from HUVECs after treatment with IFNγ and/or siRNAs, and real-time polymerase chain reaction (RT-PCR) analyses were performed.

CLP sepsis = test: Cecal ligation and puncture (CLP) sepsis model: survival; type: in vivo, rat
Source text: A rat model of sepsis was induced through cecal ligation and puncture (CLP) as described previously (Wichterman K A, Baue A E, Chaudry I H: Sepsis and septic shock-a review of laboratory models and a proposal. J Surg Res 29:189-201, 1980). An incision was made along the midline of the abdomen on an anesthetized animal. The cecum was exteriorized, ligated and punctured with a stainless steel needle. An appropriate amount of fecal matter was then extruded. The gauge of the needle, number of punctures and amount of fecal matter extruded are all factors in determining the severity of sepsis and mortality. […] The incision was sutured and appropriate post-operative care was administered. Sham-operated animals were subjected to similar laparotomy and intestinal manipulation, however, the cecum was neither ligated nor punctured. Immediately or 6 hours after the CLP procedure, animals were given intravenous injection of vehicle or a Bst2 decoy.
Mortality of animals was monitored for up to 14 days after the procedure. […] 3, 10, and 30 mg/kg doses were administered immediately following the CLP procedure and daily survival monitored over the course of 14 days.

B1: Bst2 decoy: soluble Bst2 protein fragment having the amino acid sequence of SEQ ID NO:1; extracellular region of human Bst2, six-histidine tag (protein)
chain: NSEACRDGLRAVMECRNVTHLLQQELTEAQKGFQDVEAQAATCNHTVMALMASLDAEKAQGQKKVEELEGEITTLNHKLQDASAEVERLRRENQVLSVRIADKKYYPSSQDHHHHHH
B1 was tested, and the “decrease of U937 cell aggregation induced by PMA and LPS” value (U937 cells) was 50%, the “expression of IL-2” value (interleukin-2 (IL-2)) was “decreased again to the basal level” and the “binding of U937 cells to IFNγ-treated HUVECs” value (HUVECs and U937 cells; Bst2 decoy-containing medium, IFN-γ 10 ng/ml 24 hrs, co-culture 4 hrs) was “decreased binding”. For the same molecule, the “dose dependence of effect in heterotypic cell aggregation/adhesion assay” value (HUVECs and U937 cells; IFNγ-treated HUVECs and U937 cells) was “dependent on concentrations; also recorded: dose-dependent response”, the “14 day survival rate” value (CLP sepsis; 3 mg/kg intravenous immediately following CLP) was 37.5% and the “14 day survival rate” value (CLP sepsis; 10 mg/kg intravenous immediately following CLP) was 80%. For the same molecule, the “14 day survival rate” value (CLP sepsis; 30 mg/kg intravenous immediately following CLP) was 75% and the 14-day survival rate (CLP sepsis; administration 6 hours post-CLP) was 70%.
